# Experimental data: publication PMC8395186, “Structural Basis of Inhibition of DCLK1 by Ruxolitinib” (International Journal of Molecular Sciences, 2021)
# B1: Doublecortin-like kinase 1 (DCLK1) kinase domain (domain or fragment, UniProt O15075 372-649, looked up)
# chain: GEEVSEEGFQIPATITERYKVGRTIGDGNFAVVKECVERSTAREYALKIIKKSKCRGKEHMIQNEVSILRRVKHPNIVLLIEEMDVPTELYLVMELVKGGDLFDAITSTNKYTERDASGMLYNLASAIKYLHSLNIVHRDIKPENLLVYEHQDGSKSLKLGDFGLATIVDGPLYTVCGTPTYVAPEIIAETGYGLKVDIWAAGVITYILLCGFPPFRGSGDDQEVLFDQILMGQVDFPSPYWDNVSDSAKELITMMLLVDVDQRFSAVQVLEHPWVND
# notes: Doublecortin-like kinase 1 (DCLK1), kinase domain, residues Gly372-Asp649; residues 376-648 are resolved in the structure; Non-phosphorylated; Crystallised with AMP-PNP, then soaked with ruxolitinib; Two molecules per asymmetric unit form the dimer; also called DCLK1KD; source: E. coli Rosetta2(DE3)pLysS, purified (Ni-NTA, TEV cleavage, SEC); not shown: His6, N-terminal, cleaved
# Biological target: the molecule itself
# Test: crystal structure; sitting-drop vapor diffusion at 23 °C; co-crystallised with AMP-PNP, then soaked with ruxolitinib; two molecules per asymmetric unit; interface analysed with the PISA server
protein,measurement,value
B1,stoichiometry N,2
